According to patent publication EP4703383A1 (Shenzhen Genuine Biomedical Technology Co., Ltd, dated 2026):

T1: extracellular segment of the PRLR protein of cynomolgus monkey with avi-(his)6 tag (cynoPRLR-ECD-avi-his) (cynomolgus monkey)
T1 construct: The assays say only 'monomeric monkey PRLR extracellular domain / ECD'; also called cynomolgus monkey PRLR extracellular domain; Monkey PRLR
T1 chain: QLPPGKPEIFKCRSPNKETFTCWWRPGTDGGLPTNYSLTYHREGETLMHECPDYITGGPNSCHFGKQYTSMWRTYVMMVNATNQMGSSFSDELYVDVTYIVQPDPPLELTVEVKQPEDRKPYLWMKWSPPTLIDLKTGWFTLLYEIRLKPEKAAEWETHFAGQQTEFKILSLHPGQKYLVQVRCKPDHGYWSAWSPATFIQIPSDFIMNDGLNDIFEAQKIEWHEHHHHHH

T2: extracellular segment of human PRLR protein with avi-(his)6 tag (hPRLR-ECD-avi-his) (human, UniProt P16471 25-234)
T2 construct: The assays say only 'monomeric human PRLR extracellular domain / ECD'; also called human PRLR extracellular domain; monomeric PRLR ECD
T2 sequence: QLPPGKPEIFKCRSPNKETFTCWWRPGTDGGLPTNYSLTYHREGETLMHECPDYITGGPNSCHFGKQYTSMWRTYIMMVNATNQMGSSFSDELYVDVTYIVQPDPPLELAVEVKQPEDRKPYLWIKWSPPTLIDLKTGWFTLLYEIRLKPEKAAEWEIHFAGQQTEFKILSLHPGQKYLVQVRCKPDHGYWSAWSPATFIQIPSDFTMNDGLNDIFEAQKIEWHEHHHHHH

T3: human PRLR expressed on cells (human, UniProt P16471 25-622)
T3 sequence: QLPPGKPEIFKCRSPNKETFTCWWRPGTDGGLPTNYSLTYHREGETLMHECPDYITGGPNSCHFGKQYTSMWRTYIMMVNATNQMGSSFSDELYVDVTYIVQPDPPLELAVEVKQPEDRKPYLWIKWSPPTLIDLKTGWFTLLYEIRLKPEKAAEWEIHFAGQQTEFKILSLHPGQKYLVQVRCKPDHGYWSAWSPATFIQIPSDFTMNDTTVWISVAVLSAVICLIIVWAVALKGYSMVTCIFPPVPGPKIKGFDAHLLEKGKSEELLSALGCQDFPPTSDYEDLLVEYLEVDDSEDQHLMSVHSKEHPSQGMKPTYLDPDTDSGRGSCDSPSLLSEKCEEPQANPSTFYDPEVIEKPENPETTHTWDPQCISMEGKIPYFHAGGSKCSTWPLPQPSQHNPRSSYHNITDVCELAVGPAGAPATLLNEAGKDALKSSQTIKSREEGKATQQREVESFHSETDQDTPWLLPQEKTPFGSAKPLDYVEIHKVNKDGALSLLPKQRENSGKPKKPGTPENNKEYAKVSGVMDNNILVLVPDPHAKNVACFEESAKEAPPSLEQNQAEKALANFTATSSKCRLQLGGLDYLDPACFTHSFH


Tests used:
[1] = molecular target: T1, extracellular segment of the PRLR …; assay: ELISA, coated antigen 1 ug/mL
[2] = molecular target: T1, extracellular segment of the PRLR …; assay: ELISA, coated antigen 1 ug/mL, antibody 10 ug/mL
[3] = molecular target: T4, recombinant mesothelin protein with the same tag; assay: ELISA, coated antigen 1 ug/mL, antibody 10 ug/mL
T4 construct: Control antigen of the species-specific ELISA; also called Control protein

[4] = molecular target: T2, extracellular segment of human PRLR …; assay: ELISA, coated antigen 1 ug/mL, antibody 10 ug/mL
[5] = molecular target: T2, extracellular segment of human PRLR …; assay: BLI (Octet), antibody on Protein A sensor, monomeric PRLR ECD in solution, 1:1 fit
[6] = molecular target: T3, human PRLR expressed on cells; assay: cell-based or functional assay
[7] = molecular target: T2, extracellular segment of human PRLR …; assay: BLI, biotinylated monomeric PRLR ECD on streptavidin sensor, antibody 3.125-100 nM in solution, 1:1 fit
[8] = molecular target: T1, extracellular segment of the PRLR …; assay: as above
[9] = molecular target: T2, extracellular segment of human PRLR …; assay: BLI epitope binning on biotinylated human PRLR ECD, 100 nM each; competitor: P-PR-C07H-v; which axis is the first antibody is not stated
[10] = molecular target: T2, extracellular segment of human PRLR …; assay: BLI epitope binning on biotinylated human PRLR ECD, 100 nM each; competitor: HP-PR01D12-v; which axis is the first antibody is not stated
[11] = molecular target: T2, extracellular segment of human PRLR …; assay: BLI epitope binning on biotinylated human PRLR ECD, 100 nM each; competitor: P-PR-C05H-v2; which axis is the first antibody is not stated

| binding result [1] | absorbance at 450nm [2] | absorbance at 450nm [3] | absorbance at 450nm [4] | Kd [5] | koff [5] | kon [5] | Blocking percentage (%) of 100 nM antibody (STAT5 luciferase reporter) [6] | Kd [7] | koff [7] | kon [7] | Kd [8] | koff [8] | kon [8] | ratio of the binding signal of the second antibody to the reference [9] | ratio of the binding signal of the second antibody to the reference [10] | ratio of the binding signal of the second antibody to the reference [11] | Binder |
| --- | --- | --- | --- | --- | --- | --- | --- | --- | --- | --- | --- | --- | --- | --- | --- | --- | --- |
| no binding (tested: 10 µg/mL) | 0.077 | 0.076 |  |  |  |  |  |  |  |  |  |  |  |  |  |  | HP-PR01B01 (antibody, V domains shown, also called Antibody No. 23) VH: EVHLVESGPDLVKPSQSLSLTCTVTGYSITSGYNWHWIRQFPGNKLEWMGYIHYSGSTKYDPSLKSRISFTRDTSRNQFFLQLNSVTTEDRATYYCARSEAGGYSWFAYWGQGTLVTVSA VL: DIVMTQSPAIMSASPGEKVTMACSASSSVNYMHWYQQKSGTSPKRWIYDTSKLASGVPARFSGSGSGTSYSLTISSMEAEDAATYYCQQWSSNPLTFGAGTKLELK |
|  |  | 0.068 | 2.02 | 1.05 pM | 2.44e-07 s⁻¹ | 232000 M⁻¹ s⁻¹ |  |  |  |  |  |  |  |  |  |  | P-PR-D01H (antibody, V domains shown, also called Antibody No. 8) VH: QVQLQQPGSELVRPGASVKLSCKASGFTFTTYWVHWVKQRPGQGLEWIGNISPGGGSTNYDEKFKSKASLTVDTFSNTAYMQLGSLTSEDSAVYYCIRHSGNYFNAMDYWGQGTTLTVSS VL: DIVMTQAAPSVPVTPGESVSISCRSSKSLLHSNGNTYLYWFLQRPGQSPQLLIYRMSNLASGVPDRFSGSGSGTAFTLRISRVEAEDVGVYYCMQHLEYPLTFGAGTKLELK |
|  |  | 0.062 | 2.29 | 3640 pM | 0.000386 s⁻¹ | 106000 M⁻¹ s⁻¹ |  |  |  |  |  |  |  |  |  |  | P-PR-C07H (antibody, V domains shown, also called Antibody No. 5) VH: EVQLQQSGAELVRPGTSVQISCKASGYTFTNNWLAWIKQRPGHGLEWIGDIYPGGVYTNYNEKFKGKATLTADTSSSTAYMQLSSLTSEDSAVYFCYYGDFWSAYWGQGTLVTVSA VL: DIVMTQAAPSVPVTPGESVSISCRSSKSLLHSNGNTYLYWFLQRPGQSPQLLIYRMSNLASGVPDRFSGSGSGTAFTLRISRVEAEDVGVYYCMQHLEYPLTFGAGTKLELK |
|  |  | 0.137 | 2.48 | 3380 pM | 0.000389 s⁻¹ | 115000 M⁻¹ s⁻¹ |  |  |  |  |  |  |  |  |  |  | P-PR-D06H (antibody, V domains shown, also called Antibody No. 16; P-PR-D06W) VH: QVQLQQPGSELVRPGASVKLSCKASGFTFTTFWVHWVKQRPGQGLEWIGNISPGSTSTNYNEKFKNKASLTVDTFSNTAYMQLSSLTSEDSAVYYCIRHSGNYFNAMDYWGQGTTLTVSS VL: DIVMTQAAPSVPVTPGESVTISCRSSKSLLHSNGKTYLYWFLQRPGQSPQLLIYWMSNLASGVPDRFSGSGSGTAFTLRISRVEAEDVGVYYCMQHLEYPFTFGVGTKLELK |
| no binding (tested: 10 µg/mL) | 0.097 | 0.076 |  |  |  |  |  |  |  |  |  |  |  |  |  |  | HP-PR02H02 (antibody, V domains shown, also called Antibody No. 21) VH: EVMLVESGGGLVKPGGSLKLACAASGFTFSSYTMSWVRQTPEKRLEWVATISSGGSYTYYPDSVKGRFTISRDNAKNTLYLQLSSLKSEDTAMYYCTRDRYYSTTPDWYFDVWGAGTTLTVSS VL: DIVITQSPATLSVTPGDSVSLSCRATQIIFNNLHWYQQKSHESPRLLITYTSQSISGIPSRFSGSGSGTDFTLTINSVETEDFGMYFCQQSNTWPRTFGGGTKLEIK |
|  |  |  |  |  |  |  | 17.3% | < 1 pM | 5.03e-07 s⁻¹ | 937000 M⁻¹ s⁻¹ | < 1 pM | 4.08e-07 s⁻¹ | 1.04e+06 M⁻¹ s⁻¹ | 35% | 15.5% | 11.2% | P-PR-C05H-v2 (antibody, V domains shown, Humanized antibody from P-PR-C05H; also called Antibody No. 25; Anti-P-PR-C05H-v2) VH: EVQLVQSGAEVKKPGASVKVSCKASGFTFTTFWVHWVRQAPGQGLEWIGNIAPGSTSTNYAQKFQGRATLTVDTSISTAYMELSSLRSEDTAVYYCIRHSGNYFNAMDYWGQGTLVTVSS VL: DIVMTQSPLSLPVTPGEPASISCRSSKSLLHSNGNTYLYWFLQKPGQSPQLLIYRMSNRASGVPDRFSGSGSGTDFTLKISRVEAEDVGVYYCMQHLEYPLTFGQGTKVEIK |
|  |  |  |  |  |  |  | 100% | 3940 pM | 0.0032 s⁻¹ | 813000 M⁻¹ s⁻¹ | < 1 pM | 4.19e-07 s⁻¹ | 663000 M⁻¹ s⁻¹ | 13.4% | 49.8% | 52.7% | P-PR-C07H-v (antibody, V domains shown, Humanized antibody from P-PR-C07H; also called Antibody No. 26; hP-PR-C07H-v) VH: EVQLVQSGAEVKKPGSSVKVSCKASGYTFTNNWLAWIRQAPGQGLEWIGDIYPGGVYTNYNQKFQGRATLTADTSTSTAYMELSSLRSEDTAVYFCYYGDFWSAYWGQGTLVTVSS VL: DIVMTQSPLSLPVTPGEPASISCRSSKSLLHSNGNTYLYWFLQKPGQSPQLLIYRMSNRASGVPDRFSGSGSGTDFTLKISRVEAEDVGVYYCMQHLEYPLTFGQGTKVEIK |
|  |  |  |  |  |  |  | 46.7% | 1.13 pM | 4.88e-07 s⁻¹ | 431000 M⁻¹ s⁻¹ | < 1 pM | 3.43e-07 s⁻¹ | 453000 M⁻¹ s⁻¹ | 31.8% | 14.4% | 9.2% | HP-PR01D12-v (antibody, V domains shown, also called Antibody No. 27; hHP-PR01D12-v) VH: EVQLVESGGGLVQPGGSLRLSCAASGFTFSSFGMNWVRQAPGKGLEWVAYISSGSSIIYYADSVKGRFTISRDNSKNTLYLQMNSLRAEDTAVYYCTRFYGYIPFDYWGQGTLVTVSS VL: DIQMTQSPSSLSASVGDRVTITCRASSSLIYLHWYQQKPGKAPKLWIYDTSKLASGVPSRFSGSGSGNDYTLTISSLQPEDFATYYCFQGSGYPLTFGQGTKVEIK |
